Laboratory results from patent US20230296569A1, “Substance quantification in complex mixtures” (ISA Pharmaceuticals B.V., priority 2021, published 2023).

What was measured:
[1] = Peptide content (assay) of lyophilized drug product by UPLC-UV at 220 nm, conventional method (peptide as reference standard); type: physicochemical; conditions: conventional method (peptide as RS)
Method: The purity including individual related substances and the assay of a DP-5P (5 peptides, SEQ ID NOs: 1-5) and DP-7P (7 peptides, SEQ ID NOs: 6-12) mixture were determined by reversed phase rapid HPLC (UPLC) using a mobile phase gradient of acetonitrile and water and UV detection at λ=220 nm.
• Column: RP C18, e.g. Waters Acquity, BEH 130 PST (1.7 μm, 150×2.1 mm) • Sample matrix Eluent A : Eluent B=85:15 (v/v). • Sample concentration 100 μg/mL net peptide (of each drug substance mixture), duplicate • Injection volume: 5 μL • Column temperature: 65° C. • Sample temperature: 5° C. • Detection: UV (λ=220 nm) • Flow rate: 0.3 mL/min • Eluent A: 0.05%v/v TFA and 1%v/v Acetonitrile (ACN) in water • Eluent B: 0.05%v/v TFA in ACN
The relative retention times (RRTs) assigned to peptides and related substances both in a DP-5P (SEQ ID NO: 1-5) and DP-7P (SEQ ID NO: 6-12) mixture was calculated with reference to the retention time of the peptide eluting in the middle (FIG. 1 and FIG. 2). That retention time was used as reference as the main peak of this drug substance was detected approx. in the center of the chromatogram. The related substances were determined by area normalization. The individual related substances were reported≥0.10%a/a. The total related substances were calculated as the sum of all individual related substances equal to or greater than a disregard limit of 0.0500%a/a. The purity was calculated as the difference between total related substances and 100%.
The assay of each of the peptides was calculated against a reference standard solution containing either five peptides (DP-5P) or seven peptides (DP-7P) and was expressed in percent and in mg net peptide/vial. For this reference method, the absorption ratio between the reference substance and the analyte is 1, because the reference substance is the analyte itself.
At T=0 months (TOM) the peptide content was measured using the conventional method of Example 2. From T=48 months (T48M) onwards the peptide content was measured with the conventional method of Example 2 and the method according to the invention of Example 3.

[2] = Peptide content (assay) of lyophilized drug product by UPLC-UV at 220 nm, method according to the invention (USP reserpine reference standard, RRF); type: physicochemical; conditions: method according to the invention (USP RS)
Description: The UPLC method similar to Example 1 was used for the quantification of analytes (i.e. the individual peptides) in mixtures DP-5P (SEQ ID NO: 1-5) and DP-7P (SEQ ID NO: 6-12) and for the determination of content uniformity of mixtures DP-5P and DP-7P (lyophilized product). The method is based on the use of an external reference standard. The relative response factor (ratio of molar extinction coefficients, RRF) against this external reference standard has been established for each peptide. The purity, individual related substances, and the assay of DP-5P and DP-7P were determined by reversed phase rapid HPLC (UPLC) using a mobile phase gradient of ACN/IPA and water and UV detection at λ220 nm.
The following lyophilized peptide compositions were used: DP-5P comprising peptides represented herein by SEQ ID NO: 1-5 admixed at equal net weights of 0.40 mg of each peptide per vial (total amount of protein per vial being 2.00 mg) and 0.56 mg TFA per vial; and DP-7P comprising peptides represented herein by SEQ ID NO: 6-12 admixed at equal net weights of 0.40 mg of each peptide per vial (total amount of protein per vial being 2.80 mg) and 0.96 mg TFA per vial. The following chemicals were used: Acetonitrile, (Biosolve, 01204102); UPLC water, (Type 1, milli-Q); trifluoroacetic acid, (Chem Lab, CLoo.2094.0001), 2-propanol, (UPLC/MS grade, Biosolve, 16264102); Reserpine, (USP, Sigma Aldrich, 1601000). The following equipment was used: QuanRecovery vials, (Waters, 186009186); UPLC pump equipped with a gradient system, autosampler, and UV detection (Waters Acquity or equivalent) and mixer volume 425 μL.
• Mobile phase A: 0.1% (v/v) TFA in water • Mobile phase B: 0.1% (v/v) TFA in 70/30 ACN/IPA • Diluent A: 0.05% (v/v) TFA in water • Diluent B: 0.05% (v/v) TFA in ACN • Blank solution: 80/20 (v/v) diluent A/diluent B • Purge solvent: 80/20 (v/v) water/ACN • Needle wash: 0.05% (v/v) TFA in 80/20 (v/v) water/ACN
5.00 mg Reserpine reference material was accurately weighed and added into a 50 mL volumetric flask. 40.0 mL of blank solution was added, by means of a volumetric pipette. The solution was stirred for 10 min, by means of a magnetic stirrer, until fully dissolved. The solution was diluted to volume with blank solution and mixed well.
Transfer of 2.0 mL, by means of a volumetric pipette, of stock reference solution 1 into a 20 mL volumetric flask. Diluted to volume with blank solution and homogenized.
This sample preparation was setup for lyophilized products DP-5P and DP-7P in an initially sealed container. Before opening and dissolving the drug product, the vials were equilibrated at room temperature for at least 1 hour. The content of the vial was dissolved with 0.8 mL of diluent B, and stirred for 20 min, using a magnetic stirrer. 3.2 mL of diluent A were added. The solution was stirred well for 20 min, using a magnetic stirrer. After dissolving the content of the vial, the sample vial was kept on the lab bench for 30 minutes. The solution was stirred briefly and transferred into an HPLC vial.
• Column: Advance Bio Peptide Map (2.7 μm, 250 x 2.1 mm) • Sample matrix 0.05%v/v TFA in ACN : water (1:4 v/v) • Sample concentration 100 μg/mL net peptide (of each drug substance), duplicate • Injection volume: 10 μL • Column temperature: 40° C. • Sample temperature: 5° C. • Detection: UV (λ=220 nm) • Flow rate: 0.2 mL/min • Run time: 65 min • Purge solvent: 80/20 (v/v) water/ACN • Needle wash: 0.05% (v/v) TFA in 80/20 water/ACN (v/v) (20 s) • Seal wash: 90/10 (v/v) water/MeOH • Elution mode: Gradient elution • Eluent A: 0.1%v/v TFA in water • Eluent B: 0.1%v/v TFA in ACN/IPA (70:30 v/v)
The RRF was determined for all 12 peptides, enabling the quantification of each peptide against a reserpine as shown above. For the determination, the absorbance of each peptide in a solution comprising said peptide at a known concentration, and of a reference standard solution comprising reserpine at a known concentration, were measured at 220 nm. […]

| Sequence | Assay (mg/vial) ([1]; DP-5P batch, T0M) | Label claim (% target 0.40 mg/vial) ([1]; DP-5P batch, T0M) [%] | Assay (mg/vial) ([1]; DP-5P batch, T48M) | Label claim (% target 0.40 mg/vial) ([1]; DP-5P batch, T48M) [%] | Assay (mg/vial) ([1]; DP-5P batch, T54M) | Label claim (% target 0.40 mg/vial) ([1]; DP-5P batch, T54M) [%] | Assay (mg/vial) ([1]; DP-7P batch, T0M) | Label claim (% target 0.40 mg/vial) ([1]; DP-7P batch, T0M) [%] | Assay (mg/vial) ([1]; DP-7P batch, T48M) | Label claim (% target 0.40 mg/vial) ([1]; DP-7P batch, T48M) [%] | Assay (mg/vial) ([1]; DP-7P batch, T54M) | Label claim (% target 0.40 mg/vial) ([1]; DP-7P batch, T54M) [%] | Assay (mg/vial) ([1]; DP-7P batch, T60M) | Label claim (% target 0.40 mg/vial) ([1]; DP-7P batch, T60M) [%] | Assay (mg/vial) ([2]; DP-7P batch, T48M) | Label claim (% target 0.40 mg/vial) ([2]; DP-7P batch, T48M) [%] | Assay (mg/vial) ([2]; DP-7P batch, T54M) | Label claim (% target 0.40 mg/vial) ([2]; DP-7P batch, T54M) [%] | Assay (mg/vial) ([2]; DP-7P batch, T60M) | Label claim (% target 0.40 mg/vial) ([2]; DP-7P batch, T60M) [%] | also measured |
| --- | --- | --- | --- | --- | --- | --- | --- | --- | --- | --- | --- | --- | --- | --- | --- | --- | --- | --- | --- | --- | --- |
| DKCLKFYSKISEYRHYCYSLYGTTL (Peptide 1) | 0.4047 | 101 | 0.4107 | 103 | 0.4088 | 102 |  |  |  |  |  |  |  |  |  |  |  |  |  |  | Assay (mg/vial) ([1]; DP-5P batch, T60M): 0.4082 mg/vial; Label claim (% target 0.40 mg/vial) ([1]; DP-5P batch, T60M): 102%; Assay (mg/vial) ([2]; DP-5P batch, T48M): 0.3910 mg/vial; Label claim (% target 0.40 mg/vial) ([2]; DP-5P batch, T48M): 98%; Assay (mg/vial) ([2]; DP-5P batch, T54M): 0.3932 mg/vial; Label claim (% target 0.40 mg/vial) ([2]; DP-5P batch, T54M): 98%; Assay (mg/vial) ([2]; DP-5P batch, T60M): 0.3701 mg/vial; Label claim (% target 0.40 mg/vial) ([2]; DP-5P batch, T60M): 93% |
| DKKQRFHNIRGRWTGRCMSCCRSSRTRRETQL (Peptide 6) |  |  |  |  |  |  | 0.4315 | 108 | 0.4390 | 110 | 0.4280 | 107 | 0.4286 | 107 | 0.4100 | 103 | 0.4033 | 101 | 0.4010 | 100 |  |
| HYCYSLYGTTLEQQYNKPLCDLLIR (Peptide 7) |  |  |  |  |  |  | 0.4393 | 107 | 0.4279 | 107 | 0.4219 | 105 | 0.4222 | 106 | 0.4036 | 101 | 0.3980 | 99 | 0.3967 | 99 |  |
| KQQLLRREVYDFAFRDLCIVYRDGN (Peptide 8) |  |  |  |  |  |  | 0.4357 | 109 | 0.4323 | 108 | 0.4289 | 107 | 0.4294 | 107 | 0.3980 | 99 | 0.3928 | 98 | 0.3900 | 98 |  |
| LPQLCTELQTTIHDIILECVYCKQQLLRREVY (Peptide 9) |  |  |  |  |  |  | 0.4328 | 108 | 0.4325 | 108 | 0.4262 | 107 | 0.4361 | 109 | 0.3901 | 98 | 0.3718 | 93 | 0.3700 | 93 |  |
| LYCYEQLNDSSEEEDEIDGPAGQAEPDRAHYNIVT (Peptide 2) | 0.4085 | 102 | 0.4141 | 104 | 0.4149 | 104 |  |  |  |  |  |  |  |  |  |  |  |  |  |  | Assay (mg/vial) ([1]; DP-5P batch, T60M): 0.4174 mg/vial; Label claim (% target 0.40 mg/vial) ([1]; DP-5P batch, T60M): 104%; Assay (mg/vial) ([2]; DP-5P batch, T48M): 0.3950 mg/vial; Label claim (% target 0.40 mg/vial) ([2]; DP-5P batch, T48M): 99%; Assay (mg/vial) ([2]; DP-5P batch, T54M): 0.3932 mg/vial; Label claim (% target 0.40 mg/vial) ([2]; DP-5P batch, T54M): 98%; Assay (mg/vial) ([2]; DP-5P batch, T60M): 0.3880 mg/vial; Label claim (% target 0.40 mg/vial) ([2]; DP-5P batch, T60M): 97% |
| MHGDTPTLHEYMLDLQPETTDLYCYEQLNDSSEEE [Peptide 3] | 0.3942 | 99 | 0.4311 | 108 | 0.4194 | 105 |  |  |  |  |  |  |  |  |  |  |  |  |  |  | Assay (mg/vial) ([1]; DP-5P batch, T60M): 0.4170 mg/vial; Label claim (% target 0.40 mg/vial) ([1]; DP-5P batch, T60M): 104%; Assay (mg/vial) ([2]; DP-5P batch, T48M): 0.3798 mg/vial; Label claim (% target 0.40 mg/vial) ([2]; DP-5P batch, T48M): 95%; Assay (mg/vial) ([2]; DP-5P batch, T54M): 0.3789 mg/vial; Label claim (% target 0.40 mg/vial) ([2]; DP-5P batch, T54M): 95%; Assay (mg/vial) ([2]; DP-5P batch, T60M): 0.3883 mg/vial; Label claim (% target 0.40 mg/vial) ([2]; DP-5P batch, T60M): 97% |
| MHQKRTAMFQ QERPRKLPQLCTELQTTIHD (MHQKRTAMFQQERPRKLPQLCTELQTTIHD; Peptide 10) |  |  |  |  |  |  | 0.4212 | 105 | 0.4329 | 108 | 0.4271 | 107 | 0.4362 | 109 | 0.4060 | 101 | 0.3966 | 99 | 0.3945 | 99 |  |
